# Paper PMC10079672, “Construction of a synthetic metabolic pathway for biosynthesis of 2,4-dihydroxybutyric acid from ethylene glycol” (Nature Communications, 2023)
# T1: Go.Adh (Gluconobacter oxydans, UniProt Q5FU50)
# T1 construct: gene GOX0313; expressed from pEXT20 in E. coli TW64; protein extract
# T1 sequence (Q5FU50 1-343): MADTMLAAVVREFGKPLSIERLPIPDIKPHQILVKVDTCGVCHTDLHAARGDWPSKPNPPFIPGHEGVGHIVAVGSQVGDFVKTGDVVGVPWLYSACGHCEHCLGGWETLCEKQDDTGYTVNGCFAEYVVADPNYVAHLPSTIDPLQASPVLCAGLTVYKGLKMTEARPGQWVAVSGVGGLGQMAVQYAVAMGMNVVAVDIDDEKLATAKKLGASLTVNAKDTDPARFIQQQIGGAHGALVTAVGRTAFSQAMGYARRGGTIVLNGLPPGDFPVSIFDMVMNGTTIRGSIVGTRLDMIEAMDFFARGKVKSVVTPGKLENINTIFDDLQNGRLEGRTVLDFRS
# T2: Ec.FucO (Escherichia coli, UniProt P0A9S1)
# T2 construct: expressed from pEXT20 in E. coli TW64; protein extract
# T2 sequence (P0A9S1 1-382): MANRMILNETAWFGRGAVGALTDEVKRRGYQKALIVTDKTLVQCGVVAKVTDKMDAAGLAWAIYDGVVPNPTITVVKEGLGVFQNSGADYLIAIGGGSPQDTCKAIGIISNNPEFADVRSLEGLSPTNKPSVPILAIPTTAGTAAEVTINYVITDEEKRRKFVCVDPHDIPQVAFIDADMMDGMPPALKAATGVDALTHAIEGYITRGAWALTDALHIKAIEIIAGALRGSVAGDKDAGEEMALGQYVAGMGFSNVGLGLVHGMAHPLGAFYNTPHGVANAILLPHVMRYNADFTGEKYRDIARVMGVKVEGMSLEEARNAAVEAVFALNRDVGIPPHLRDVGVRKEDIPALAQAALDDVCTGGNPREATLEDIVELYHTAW
# T3: Pc.TadH (Trinickia caryophylli, UniProt A0A1X7DDC2)
# T3 construct: gene SAMN06295900_10348; N-terminal His tag (pET28a)
# T3 sequence (A0A1X7DDC2 1-334): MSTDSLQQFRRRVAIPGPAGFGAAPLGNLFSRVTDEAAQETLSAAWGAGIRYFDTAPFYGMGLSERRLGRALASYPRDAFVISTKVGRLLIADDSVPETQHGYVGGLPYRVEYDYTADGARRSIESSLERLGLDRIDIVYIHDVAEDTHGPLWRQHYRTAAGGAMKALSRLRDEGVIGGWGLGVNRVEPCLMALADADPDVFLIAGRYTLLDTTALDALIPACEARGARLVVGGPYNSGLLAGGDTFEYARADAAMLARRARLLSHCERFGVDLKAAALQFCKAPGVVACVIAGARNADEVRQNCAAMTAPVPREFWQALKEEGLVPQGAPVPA
# Tests used:
# Go.Adh = target: T1, Go.Adh; test: ethylene glycol dehydrogenase activity in protein extract; empty-plasmid extract inactive; format: biochemical; conditions: 50 mM ethylene glycol; NAD+
# Ec.FucO = target: T2, Ec.FucO; test: as above; format: biochemical; conditions: 50 mM ethylene glycol; NAD+
# Hh.AraD = test system: T4, Hh.AraD; conditions: 37 °C
# T4 construct: gene E2K99_19880
# Pc.TadH = target: T3, Pc.TadH; test: dehydrogenase activity, microplate; format: biochemical; conditions: NAD+ or NADP+; 37 °C
# Bm.Fdh = target: T5, Bm.Fdh (Burkholderia multivorans, UniProt A0A0H3KNE7); test: dehydrogenase activity, microplate; format: biochemical; conditions: NAD+ or NADP+, 10 mM cofactor, 10 mM sugar; 37 °C
# T5 construct: gene BMULJ_04919; N-terminal His tag (pET28a)
# T5 sequence (A0A0H3KNE7 whole entry): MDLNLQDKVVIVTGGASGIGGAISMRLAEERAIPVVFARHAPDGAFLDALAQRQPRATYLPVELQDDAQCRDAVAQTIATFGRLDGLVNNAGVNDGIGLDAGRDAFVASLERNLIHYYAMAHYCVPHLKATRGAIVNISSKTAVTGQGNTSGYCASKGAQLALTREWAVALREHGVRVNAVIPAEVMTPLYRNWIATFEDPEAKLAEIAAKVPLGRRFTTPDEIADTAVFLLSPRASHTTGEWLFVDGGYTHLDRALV
# Sc.Ara1 = target: T6, Sc.Ara1 (Saccharomyces cerevisiae, UniProt P38115); test: dehydrogenase activity, microplate; format: biochemical; conditions: NAD+ or NADP+, 10 mM cofactor, 10 mM sugar; 37 °C
# T6 construct: N-terminal His tag (pET28a)
# purified protein = substrate: O=C(O)[C@@H](O)[C@H](O)CO; test: purified protein; conditions: 37 °C
# [1] = substrate: C[C@H](O)[C@H]1OC(=O)[C@@H](O)[C@@H]1O; test: lactonase kinetics, Michaelis-Menten fit; format: biochemical, Thermogutta terrifontis; conditions: 37 °C
# [2] = substrate: O=C1OC[C@@H](O)[C@@H]1O; test: lactonase kinetics, Michaelis-Menten fit; format: biochemical, Thermogutta terrifontis; conditions: 37 °C
molecule,measurement,setting,value
OCCO [ethylene glycol],activity,Go.Adh,all candidate enzymes were active on EG
same,activity,Ec.FucO,all candidate enzymes were active on EG
O=C(O)[C@@H](O)[C@H](O)CO [D-threonate],Km,Hh.AraD,1210 µM
O=C[C@@H](O)[C@H](O)CO [D-threose],specific activity (no saturation up to 50 mM),Pc.TadH,"Sc.Ara1, Pc.TadH and Bm.Fdh displayed measurable activity on D-threose"
same,specific activity,Bm.Fdh,"Sc.Ara1, Pc.TadH and Bm.Fdh displayed measurable activity on D-threose"
same,specific activity,Sc.Ara1,"Sc.Ara1, Pc.TadH and Bm.Fdh displayed measurable activity on D-threose"
Aa.AraD (Paracidovorax avenae ATCC 19860) (protein) MSTDALATQSLLILNDRDNVAVARTELGAGMELRLAGGEVLEVMATVPAGHKIALRPIAKGDAVLKYGQVIGAASTPIGAGEHVHVHNVEMGDSSPTHLVGRAYVPTDPVEQPATFMGYVRADGRVGTRNYIGVISSVNCSATVCKAIAQAFTGPALGAYPGVDGVVAITHGTGCGMSGEGEGIELLRRTLSGYIAHPNFAAVLVIGLGCEVNQVEGLTGRLPLPEGRVRTMTIQDAGGTREAIAQGIDIVRDMAAAASGARRTQVPASHLVVGLQCGGSDGYSGISANPVLGAAVDMLVRHGGTAILSETPEIYGAEHLLTARAASAEVAERLMARLAWWEAYTQRNGANMNNNPSPGNKAGGITTILEKSLGAVAKGGGSGLMDVVEYAQPVHSRGLVFMDTPGYDPVSATGQVAGGANLICFTTGRGSTYGCKPTPSLKLATNTALFRNMGMDMDFNAGDVVDGTLGIAQAGRHLFELMLATASGDRTLSETHGLGDNEFVPWQLGAVM,Km,purified protein,1.95 (±0.53) mM
same,Vmax,purified protein,0.12 µmol/min/mg
same,Vmax/Km,purified protein,62 µL/min/mg
"Tt.Lac11 (Thermogutta terrifontis) (protein, full-length with predicted N-terminal signal peptide; hexa-His tag (pET28a)) MRKLLGSSAIHVLSRRTGYGMYFLILALGVATQVVFGAEPSQNPSEKVAWIERADPGLDDLIAPDAQVEVLAEGFEWSEGPVWIPEGGYLLFSDVPKNTIYRWKEGQGIDIFLKPSGYTGFRERGGESGSNGLALDRQGRLLLCQHGDRRVARWEKGCFITLADQYEGKPLNSPNDLVVKSNGDIYFTDPPYGMTPEAQRDPNALGFCGVYRISADGKLTLLVRDMTRPNGIAFSPDEKTLYVAQSDPQRPLWMAFPVREDGTLGEGKVFFDAKPWQQSGLPGLPDGMKVDQKGNLFATGPGGVNIFRPDGTFLGRIRVKVPTANCAFGDDGSTLYITADMYLLRVKTKTKGLGF",Km,[1],0.84 (±0.06) × 10^-3 M
same,Km,[2],2.92 (±0.13) mM
same,Vmax,[2],1.76 µmol/min/mg
same,Vmax/Km,[2],603 µL/min/mg
